Test results taken from article PMC11040377 (2024).

Biological target: Tau-biotin monomer (human, UniProt P10636-8 1-441, biotin (Sulfo-NHS-LC-Biotin))

Kd: > 2000 nM
B1: Lag3 (lymphocyte-activation gene 3), on transfected SH-SY5Y cells (receptor)
chain: GPGKELPVVWAQEGAPVHLPCSLKSPNLDPNFLRRGGVIWQHQPDSGQPTPIPALDLHQGMPSPRQPAPGRYTVLSVAPGGLRSGRQPLHPHVQLEERGLQRGDFSLWLRPALRTDAGEYHATVRLPNRALSCSLRLRVGQASMIASPSGVLKLSDWVLLNCSFSRPDRPVSVHWFQGQNRVPVYNSPRHFLAETFLLLPQVSPLDSGTWGCVLTYRDGFNVSITYNLKVLGLEPVAPLTVYAAEGSRVELPCHLPPGVGTPSLLIAKWTPPGGGPELPVAGKSGNFTLHLEAVGLAQAGTYTCSIHLQGQQLNATVTLAVITVTPKSFGLPGSRGKLLCEVTPASGKERFVWRPLNNLSRSCPGPVLEIQEARLLAERWQCQLYEGQRLLGATVYAAESSSGAHSARRISGDLKGGHLVLVLILGALSLFLLVAGAFGFHWWRKQLLLRRFSALEHGIQPFPAQRKIEELERELETEMGQEPEPEPEPQLEPEPRQL
